The text below walks through data of US7718626B2, “ErbB3 binding protein compositions and methods of use” (University of Maryland, Baltimore, priority 2005, dated 2010).

The test system of assay [1] is AR-regulated gene mRNA in LNCaP cells. The experiment in a line: Real-time quantitative reverse-transcription PCR of LNCaP ebp1 transfectants. The assay is classed as cell-based, human. As for the experimental part: Real-Time Quantitative Reverse-Transcription PCR: The method of […] et al. (Nakanishi et al., 2003, Quantitative Analysis of Breast Cancer Resistance Protein and Cellular Resistance to Flavopiridol in Acute Leukemia Patients, Clin. Cancer Res., 9: 3320-3328) was used as previously described. […] Real-time quantitative RT-PCR was then performed on the LightCycler (Roche, Indianapolis, Ind.) platform to determine the relative mRNA levels of Ebp1, AR, kallikrein-2 and POV-1. The following forward and reverse primers were selected using Primer Express software and synthesized by Core Laboratory of University of Maryland School of Medicine: Ebp1, sense: […] [NT] ID NO: 6) and antisense: 5° […] ID NO: 7), Kallikrein-2, sense: [NT] ID NO: 8) and antisense: [NT] ID NO: 9), POV-1, sense: [NT] ID NO: 10) and antisense: [NT] ID NO: 11), Actin, sense: [NT] ID NO: 12) and antisense […] ID NO: 13). An SRBR Green PCR Kit was used (Applied Biosystems, Foster City, Calif.), and the analyses were performed in duplicate or triplicate in a total volume of 15 μl including 0.9 μl of 25 mM MgCl2, 1.5 μl SYBR Green I, 0.3 μl Enzyme Mix, 0.75 μl of each primer (50 ng/μl), and 2 μl of cDNA synthesized with random hexamers. Target mRNA values were normalized using actin mRNA as an internal control. The relative quantitation of gene expression was performed using the comparative ΔΔ Ct (threshold method) using β-actin as an internal control ([…] et al., 2002, The Nonsteroidal Anti-Inflammatory Drug Sulindac Causes Down-Regulation of Signal Transducer and Activator of Transcription 3 in Human Oral Squamous Cell Carcinoma Cells, Cancer Research, 62:1004-1007). The results of the microarray analysis were validated using real-time quantitative reverse-transcription PCR, Western blot, and ELISA methods. […] The expression of POV-1 mRNA and protein were each decreased about two-fold. PSA secretion in the conditioned media of ebp1 and vector control cells was assessed by ELISA. […] Finally, […]-2 mRNA expression was decreased approximately 40%.

A further assay deals with LNCaP cells. The experiment in a line: Cell growth in complete media. The assay is classed as cell-based, human. As for the experimental part: Cell Growth Assays: To measure growth in complete media, cells (2×10^4) were seeded in triplicate in individual wells of 12-well tissue culture plates in RPMI-1640 with 10% FBS and cultured for the indicated number of days. Cells were trypsinized, stained with Trypan Blue (0.4%), and counted in a hemacytometer. For soft agar growth assays, increasing concentrations of cells (as indicated) were plated in 35 mm petri dishes in complete media and 0.3% Difco Bacto Agar over an 0.5% agar layer. Colonies were counted after 10 days of incubation. For studies assessing the effect of dihydrotestosterone (DHT) on cell growth, cells (2×10^4) were plated in 12-well plates in complete media. After a 24-hour attachment period, the medium was replaced with steroid-free medium [phenol red-free RPMI 1640 and 5% charcoal-stripped FBS (Sigma)] for 48 hours. The final concentration of testosterone in the steroid-reduced media was less than 5 pM. After 48 hours of steroid depletion, cells were re-fed with fresh steroid-reduced medium with or without the indicated concentrations of DHT and/or bicalutamide (10 μM), and total cell numbers were assessed 7 days later.
Growth Characteristics of LNCaP ebp1 transfectants: The growth rate of the ebp1-transfected cells in complete media was compared to that of cells transfected with the empty vector. […]

B1: Ebp1: ErbB3 binding protein (SEQ ID NO: 2), tested by stable ectopic expression (ebp1 transfection) in LNCaP cells (protein)
chain: MSGEDEQQEQTIAEDLVVTKYKMGGDIANRVLRSLVEASSSGVSVLSLCEKGDAMIMEETGKIFKKEKEMKKGIAFPTSISVNNCVCHFSPLKSDQDYILKEGDLVKIDLGVHVDGFIANVAHTFVVDVAQGTQVTGRKADVIKAAHLCAEAALRLVKPGNQNTQVTEAWNKVAHSFNCTPIEGMLSHQLKQHVIDGEKTIIQNPTDQQKKDHEKAEFEVHEVYAVDVLVSSGEGKAKDAGQRTTIYKRDPSKQYGLKMKTSRAFFSEVERRFDAMPFTLRAFEDEKKARMGVVECAKHELLQPFNVLYEKEGEFVAQFKFTVLLMPNGPMRITSGPFEPDLYKSEMEVQDAELKALLQSSASRKTQKKKKKKASKTAENPTSGETLEENEAGD
modifications: Homo Sapien
Turning to B1, in assay [1], the “POV-1 mRNA decrease” value is listed as “about two-fold” and the “kallikirein-2 mRNA expression decrease” value was “approximately 40%”. Also, the “AR mRNA down-regulation” value in assay [1] (real-time PCR) is reported as “more than 2 fold”. Also, the “growth rate in complete media” value in the assay on LNCaP cells (ebp1 transfectants vs vector control, p<0.05) is “significantly decreased”. For the same molecule, the doubling time with LNCaP cells (ebp1 transfectants, complete media (vector control 48 hours)) was 72 h.
